Results taken from patent publication US20090011988A1 (Genentech, published 2009).
Positions of bridges follow the written chain, without caps; N, C: chain ends. No end group written: not given here.

Legend:
[1] = biological target: T1, recombinant human IGFBP-3 (human, UniProt P17936 28-291); assay: phage ELISA (IGF-blocking phage assay): titration of g8 peptide-phage on an IGFBP-3-coated plate in the presence of 100 nM IGF-1; OD492
Description: (§1) The plates were then washed ten times, as above, and a solution of rabbit anti-phage antibody mixed with a goat-anti-rabbit conjugate of horseradish peroxidase was added. After an incubation of 1 hour at room temperature, the plates were developed with a chromogenic substrate, o-phenylenediamine (Sigma). The reaction was stopped with addition of ½ volume of 2.5 M H₂SO₄. Optical density at 490 nm was measured on a spectrophotometric plate reader.

[2] = biological target: T1, recombinant human IGFBP-3; assay: phage ELISA: titration of g8 peptide-phage on an IGFBP-3-coated plate without IGF-1; OD492
Description: as §1

[3] = biological target: T1, recombinant human IGFBP-3; assay: phage ELISA (IGF-blocking phage assay): g8 peptide-phage at a 50-fold dilution on an IGFBP-3-coated plate, without and with IGF-1; OD492
Description: as §1
In each case, the phagemid clone was grown from a single colony overnight at 37° C. in a culture volume of 5 ml. The phage particles were precipitated and resuspended in 0.5 ml of PBS buffer.

[4] = biological target: T1, recombinant human IGFBP-3; assay: phage ELISA on IGFBP-3 plate, competitor IGF-1
[5] = biological target: T1, recombinant human IGFBP-3; assay: BIAcore competition, IGFBP-3 to immobilized IGF-1
Description: IGF-1 was immobilized on a dextran chip for inhibition assays using a BIACORE™ 2000 surface-plasmon-resonance device (BIAcore, Inc., Piscataway, N.J.) to measure free binding protein. IGF-1 was biotinylated as described above, and injected over a chip to which streptavidin had been coupled (BIAcore, Inc.) to give 400 to 800 RU (response units) of immobilized IGF-1. […] After incubation for >1 hour at room temperature, an aliquot of 20:L was injected at a flow rate of 20:L/min over the IGF-1 chip. […]

[6] = biological target: T1, recombinant human IGFBP-3; assay: BIAcore competition, IGFBP-3 to immobilized IGF-2
Description: IGF-2 was immobilized on a dextran chip for inhibition assays using a BIACORE™ 2000 surface-plasmon-resonance device (BIAcore, Inc., Piscataway, N.J.) to measure free binding protein. IGF-2 was biotinylated as described above, and injected over a chip to which streptavidin had been coupled (BIAcore, Inc.) to give approximately 1500 RU of immobilized IGF-2. […] After incubation for >1 hour at room temperature, an aliquot of […] was injected at a flow rate of […] over the IGF-2 chip.

[7] = biological target: T1, recombinant human IGFBP-3; assay: BIAcore competition, IGFBP-3 to IGF-1
Description: IGF-1 was immobilized on a dextran chip for inhibition assays using a BIACORE™ 2000 surface-plasmon-resonance device (BIAcore, Inc., Piscataway, N.J.) to measure free binding protein. IGF-1 was biotinylated as described above, and injected over a chip to which streptavidin had been coupled (BIAcore, Inc.) to give 400 to 800 RU (response units) of immobilized IGF-1. […] After incubation for >1 hour at room temperature, an aliquot of 20:L was injected at a flow rate of 20:L/min over the IGF-1 chip.

human IGFBP-1 [8] = biological target: T2, human IGFBP-1 (human, UniProt P08833 26-259); assay: BIAcore inhibition assay
T2 sequence (looked up): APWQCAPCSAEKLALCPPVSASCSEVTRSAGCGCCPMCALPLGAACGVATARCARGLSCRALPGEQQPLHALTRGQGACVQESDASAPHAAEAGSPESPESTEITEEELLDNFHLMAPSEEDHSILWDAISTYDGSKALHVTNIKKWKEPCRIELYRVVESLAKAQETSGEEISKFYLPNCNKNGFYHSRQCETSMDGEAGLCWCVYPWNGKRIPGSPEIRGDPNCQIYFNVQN
Description: Peptides were assayed in a BIAcore™ assay as described in WO 98/45427, supra.

human IGFBP-1 [9] = biological target: T2, human IGFBP-1; assay: BIAcore, IGFBP-1 coupled to chip
human IGFBP-1 [10] = biological target: T2, human IGFBP-1; assay: BIAcore kinetics, IGFBP-1 coupled to chip
Description: For each dilution of peptides, a global fit of the sensorgram data was performed using a 1:1 Langmuir binding model.

T1 sequence (P17936 28-291 limits assumed): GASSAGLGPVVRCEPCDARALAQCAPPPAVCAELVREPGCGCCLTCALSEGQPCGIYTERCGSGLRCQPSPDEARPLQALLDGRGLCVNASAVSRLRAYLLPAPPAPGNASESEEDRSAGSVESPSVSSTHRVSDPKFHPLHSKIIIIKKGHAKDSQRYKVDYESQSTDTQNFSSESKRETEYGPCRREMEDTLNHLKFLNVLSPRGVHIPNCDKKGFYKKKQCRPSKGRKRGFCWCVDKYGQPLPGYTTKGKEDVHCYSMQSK

B1: peptide-phage clone 4A3.1 (g8 display) (peptide, not shown: large carriers)
chain: SGTACYGGPEWWCCSLAGSP
modifications: not fully specified (bridges); also: displayed on M13 g8p phage, disulfide pairing of the three Cys not given here
notes: polyvalent display on M13 phage
binding result [1]: binds

B2: peptide-phage clone 4D3.4 (g8 display) (peptide, not shown: large carriers)
chain: RVGAYISCSETECWVEDLLD
modifications: not fully specified (bridges); cysteine pairing not given here; also: polyvalent display on M13 phage, fused via linker to g8p
notes: as for B1
binding result [2]: binds

B3: peptide-phage clone 4C3.2 (g8 display) (peptide, not shown: large carriers)
chain: ELDGWVCIKVGEQNLCYLAE
modifications: not fully specified (bridges); cysteine pairing not given here; also: polyvalent display on M13 phage, fused via linker to g8p
notes: as for B1
binding result [3]: binds

B4: 4D3.8 (peptide)
peptide displayed on M13 phage as a fusion to g8p: SEEVCWPVAEWYLCNILGP
modifications: not fully specified (bridges); cysteine pairing not given here; also: displayed on phage as g8p fusion
notes: whole phage particle in the assay; also called peptide-phage clone 4D3.8 (g8 display)
binding result [3]: binds

B5: 4D3.9 (peptide)
peptide displayed on M13 phage as a fusion to g8p: ETVANCDCYMDLCLCYGSDR
modifications: not fully specified (bridges); cysteine pairing not given here; also: displayed on phage as g8p fusion
notes: whole phage particle in the assay; also called peptide-phage clone 4D3.9 (g8 display)
binding result [3]: binds

B6: 4D3.12 (peptide)
peptide displayed on M13 phage as a fusion to g8p: AEWAECWIAGDQLLCVGKDN
modifications: not fully specified (bridges); cysteine pairing not given here; also: displayed on phage as g8p fusion
notes: whole phage particle in the assay; also called peptide-phage clone 4D3.12 (g8 display)
binding result [3]: binds

B7: peptide-phage clone 4B3.4 (g8 display) (peptide, not shown: large carriers)
chain: DMGVCADGPWMYVCEWTE
notes: as for B1
binding result [1]: binds

B8: peptide-phage clone 4D3.3 (g8 display) (peptide, not shown: large carriers)
chain: SEEVCWPVAEWYLCNMWGR
modifications: not fully specified (bridges); cysteine pairing not given here; also: polyvalent display on M13 phage, fused via linker to g8p
notes: as for B1
binding result [1]: binds

B9: peptide-phage clone 23A3.3 (g8 display) (peptide, not shown: large carriers)
chain: SGGAIYWPVEQFIAFMAVGK
notes: as for B1
% inhibition of phage binding by 100 nM IGF-1 [4]: ~20%

B10: peptide-phage clone 23A3.5 (g8 display) (peptide, not shown: large carriers)
chain: SGGAIYMPVEQFIAFMAVGK
notes: as for B1
% inhibition of phage binding by 100 nM IGF-1 [4]: ~20%

B11: BP3-01-ox (peptide)
peptide: SEEVCWPVAEWYLCNMWG
modifications: disulfide 5-14
IC50 [5]: 2 µM
IC50 [6]: 0.92 µM
IC50 [7]: 2 µM

B12: BP3-15 (peptide)
peptide: SEEVCWPVAEWYLCN
modifications: disulfide 5-14
IC50 [5]: 0.75 µM
IC50 [6]: 0.78 µM
IC50 [7]: 0.72 µM

B13: BP3-17 (peptide)
peptide: VCWPVAEWYLCN
modifications: disulfide 2-11
IC50 [5]: 9 µM
IC50 [6]: 5.1 µM

B14: (i+7)A (peptide)
peptide: Ac-CRAGPLQELCEKYAE
modifications: disulfide 1-10 (inferred); linker 8-15 via 1,5‑diaminopentane
fold potency reduction, IC50 (BP1-01)/IC50 (mut) (human IGFBP-1 [8]): 40

B15: (i+7)C (peptide)
peptide: Ac-PLEWLAEKYEG
modifications: linker 3-10 via 1,5‑diaminopentane
fold potency reduction, IC50 (BP1-01)/IC50 (mut) (human IGFBP-1 [8]): 20

B16: (i+7)D (peptide)
peptide: Ac-RAGPLEWLAEKYEG
modifications: linker 6-13 via 1,5‑diaminopentane
fold potency reduction, IC50 (BP1-01)/IC50 (mut) (human IGFBP-1 [8]): 7.7

B17: (i+8)B (peptide)
peptide: Ac-RPLEWLAEKYFE
modifications: linker 4-12 via 1,5‑diaminopentane
fold potency reduction, IC50 (BP1-01)/IC50 (mut) (human IGFBP-1 [8]): 7.7

B18: (i+8)C (peptide)
peptide: Ac-RAGPLEWLAEKYFE
modifications: linker 6-14 via 1,5‑diaminopentane
fold potency reduction, IC50 (BP1-01)/IC50 (mut) (human IGFBP-1 [8]): 5.9

B19: BP1-02 (peptide)
peptide: SEVGCRAGPLQWLCEKYFG
modifications: disulfide 5-14
half-life for peptide dissociation (human IGFBP-1 [9]): ~28 s
koff (human IGFBP-1 [9]): 0.0503 s⁻¹
kon (human IGFBP-1 [9]): 230000 M⁻¹ s⁻¹
Kd (human IGFBP-1 [10]): 0.21 µM

B20: BP1-20 (peptide)
peptide: EARVCRAGPLQWLCEKYF-NH2
modifications: disulfide 5-14; N-terminus assumed
SMILES: CC(C)C[C@@H]1NC(=O)[C@H](Cc2c[nH]c3ccccc23)NC(=O)[C@H](CCC(N)=O)NC(=O)[C@H](CC(C)C)NC(=O)[C@@H]2CCCN2C(=O)CNC(=O)[C@H](C)NC(=O)[C@H](CCCNC(=N)N)NC(=O)[C@@H](NC(=O)[C@@H](NC(=O)[C@H](CCCNC(=N)N)NC(=O)[C@H](C)NC(=O)[C@@H](N)CCC(=O)O)C(C)C)CSSC[C@@H](C(=O)N[C@@H](CCC(=O)O)C(=O)N[C@@H](CCCCN)C(=O)N[C@@H](Cc2ccc(O)cc2)C(=O)N[C@@H](Cc2ccccc2)C(N)=O)NC1=O
Kd (human IGFBP-1 [10]): 0.033 µM

B21: BP1-21A (peptide)
peptide: SEVGCRAGPLQWLCEKYFSTY-NH2
modifications: disulfide 5-14; N-terminus assumed
SMILES: CC(C)C[C@@H]1NC(=O)[C@H](Cc2c[nH]c3ccccc23)NC(=O)[C@H](CCC(N)=O)NC(=O)[C@H](CC(C)C)NC(=O)[C@@H]2CCCN2C(=O)CNC(=O)[C@H](C)NC(=O)[C@H](CCCNC(=N)N)NC(=O)[C@@H](NC(=O)CNC(=O)[C@@H](NC(=O)[C@H](CCC(=O)O)NC(=O)[C@@H](N)CO)C(C)C)CSSC[C@@H](C(=O)N[C@@H](CCC(=O)O)C(=O)N[C@@H](CCCCN)C(=O)N[C@@H](Cc2ccc(O)cc2)C(=O)N[C@@H](Cc2ccccc2)C(=O)N[C@@H](CO)C(=O)N[C@H](C(=O)N[C@@H](Cc2ccc(O)cc2)C(N)=O)[C@@H](C)O)NC1=O
notes: also called Y135C
Kd (human IGFBP-1 [10]): 0.041 µM

B22: BP1-40 (peptide)
peptide: GQQSCRAGPLQWLCEKYFSTY
modifications: disulfide 5-14
notes: also called Y0791A
Kd (human IGFBP-1 [10]): 0.027 µM

B23: BP3-27 (peptide)
peptide: EVCWPVAEWYLCN
modifications: disulfide 3-12
IC50 [7]: 2.8 µM

B24: BP3-25 (peptide)
peptide: CWPVAEWYLCN
modifications: disulfide 1-10
IC50 [7]: 46 µM

B25: BP3-24 (peptide)
peptide: WPVAEWYLCN
notes: only one Cys, no intact disulfide
IC50 [7]: > 1000 µM

B26: peptide-phage clone 4D3.11 (g8 display) (peptide, not shown: large carriers)
chain: VAWEVCWDRHDQGYICTTDS
notes: as for B1
% inhibition of phage binding by 100 nM IGF-1 [4]: 5%
